Measured values as given in the Immune Epitope Database (IEDB).
Each block holds one sequence with its values, some of them ahead of it.

Columns and labels:
HLA-A*02:50 = experiment: IEDB peptide-MHC binding, purified MHC/competitive/fluorescence; filed as Kd, often an IC50 or EC50 that approximates it; ≥ and ≤ were set here for values at or beyond the usual limits of such assays
HLA-A*02:01 [1] = experiment: IEDB peptide-MHC binding, purified MHC/direct/fluorescence; filed as Kd, often an IC50 or EC50 that approximates it; ≥ and ≤ were set here for values at or beyond the usual limits of such assays
HLA-A*02:16 [2] = experiment: as above; details: source organism: Listeria monocytogenes serotype 4b str. H7858
HLA-A*69:01 = experiment: as above
HLA-A*11:01 = experiment: IEDB peptide-MHC binding, purified MHC/competitive/fluorescence; filed as Kd, often an IC50 or EC50 that approximates it; ≥ and ≤ were set here for values at or beyond the usual limits of such assays
HLA-A*31:01 = experiment: as above; details: source organism: Corynebacterium glutamicum ATCC 13032
HLA-A*03:01 [3] = experiment: as above; details: source organism: Corynebacterium glutamicum ATCC 13032
HLA-A*02:19 = experiment: as above; details: source organism: Corynebacterium glutamicum ATCC 13032
HLA-A*02:11 [4] = experiment: as above; details: source organism: Corynebacterium glutamicum ATCC 13032
HLA-B*07:02 = experiment: as above
HLA-A*02:12 = experiment: as above; details: source organism: Corynebacterium glutamicum ATCC 13032
HLA-A*24:02 = experiment: as above; details: source organism: Corynebacterium glutamicum ATCC 13032
HLA-A*02:01 [5] = experiment: as above; details: source organism: Corynebacterium glutamicum ATCC 13032
HLA-B*35:01 = experiment: as above; details: source organism: Corynebacterium glutamicum ATCC 13032
HLA-A*02:03 = experiment: as above; details: source organism: Corynebacterium glutamicum ATCC 13032
HLA-A*02:06 [6] = experiment: as above; details: source organism: Corynebacterium glutamicum ATCC 13032
HLA-A*26:01 [7] = experiment: as above; details: source organism: Corynebacterium glutamicum ATCC 13032
HLA-B*27:05 = experiment: as above
HLA-A*02:16 [8] = experiment: as above; details: source organism: Corynebacterium glutamicum ATCC 13032
HLA-B*58:01 = experiment: as above
HLA-B*18:01 [9] = experiment: as above; details: source organism: Corynebacterium glutamicum ATCC 13032
HLA-B*40:01 = experiment: as above
HLA-A*01:01 = experiment: as above
HLA-B*15:01 = experiment: as above; details: source organism: Corynebacterium glutamicum ATCC 13032
HLA-A*30:01 = experiment: as above
HLA-B*46:01 [10] = experiment: as above; details: source organism: Corynebacterium glutamicum ATCC 13032
HLA-A*23:01 = experiment: as above; details: source organism: Yersinia pestis CO92
HLA-A*66:01 = experiment: as above; details: source organism: Yersinia pestis CO92
HLA-A*30:02 = experiment: as above; details: source organism: Yersinia pestis CO92
HLA-B*53:01 = experiment: as above; details: source organism: Yersinia pestis CO92
HLA-B*14:02 = experiment: as above; details: source organism: Yersinia pestis CO92
HLA-B*44:02 = experiment: as above; details: source organism: Yersinia pestis CO92
HLA-B*08:01 = experiment: as above; details: source organism: Yersinia pestis CO92
HLA-A*03:01 [11] = experiment: IEDB peptide-MHC binding, purified MHC/direct/fluorescence; filed as Kd, often an IC50 or EC50 that approximates it; ≥ and ≤ were set here for values at or beyond the usual limits of such assays; details: source organism: Yersinia pestis CA88-4125
HLA-A*02:11 [12] = experiment: as above; details: source organism: Yersinia pestis CA88-4125
HLA-B*39:01 = experiment: as above; details: source organism: Yersinia pestis CA88-4125
HLA-B*57:01 = experiment: as above; details: source organism: Yersinia pestis CA88-4125
HLA-A*29:02 = experiment: as above; details: source organism: Yersinia pestis CA88-4125
HLA-A*02:06 [13] = experiment: as above; details: source organism: Yersinia pestis CA88-4125
HLA-A*26:01 [14] = experiment: as above; details: source organism: Yersinia pestis CA88-4125
HLA-A*24:03 = experiment: as above; details: source organism: Yersinia pestis CA88-4125
HLA-B*27:03 = experiment: as above; details: source organism: Yersinia pestis CA88-4125
HLA-B*18:01 [15] = experiment: as above; details: source organism: Yersinia pestis CA88-4125
HLA-B*51:01 = experiment: as above; details: source organism: Yersinia pestis CA88-4125
HLA-B*46:01 [16] = experiment: as above; details: source organism: Yersinia pestis CA88-4125
[17] = source organism: Listeria monocytogenes
[18] = source organism: Corynebacterium glutamicum ATCC 13032
[19] = source organism: Yersinia pestis CO92
[20] = source organism: Yersinia pestis CA88-4125

Sequence: ALVSEVTEV
Kd (HLA-A*02:50; source organism: Listeria monocytogenes EGD-e): ≤ 0.0001 µM
Kd (HLA-A*02:01 [1]; [17]): 0.0797 µM
Kd (HLA-A*02:16 [2]): 0.002 µM
Kd (HLA-A*69:01; [17]): 1.92 µM

Kd (HLA-A*11:01; [18]): ≥ 20 µM
Kd (HLA-A*02:50; [18]): 0.0136 µM
Kd (HLA-A*31:01): ≥ 20 µM
Kd (HLA-A*03:01 [3]): ≥ 20 µM
Kd (HLA-A*02:19): ≥ 20 µM
Kd (HLA-A*02:11 [4]): 0.0267 µM
Kd (HLA-B*07:02; [18]): ≥ 20 µM
Kd (HLA-A*02:12): 0.8 µM
Kd (HLA-A*24:02): ≥ 20 µM
Kd (HLA-A*02:01 [5]): 0.976 µM
Kd (HLA-B*35:01): ≥ 20 µM
Kd (HLA-A*02:03): 0.95 µM
Kd (HLA-A*02:06 [6]): 0.0022 µM
Kd (HLA-A*26:01 [7]): ≥ 20 µM
Kd (HLA-B*27:05; [18]): ≥ 20 µM
Kd (HLA-A*02:16 [8]): 0.097 µM
Kd (HLA-B*58:01; [18]): ≥ 20 µM
Kd (HLA-B*18:01 [9]): ≥ 20 µM
Kd (HLA-B*40:01; [18]): ≥ 20 µM
Kd (HLA-A*01:01; [18]): ≥ 20 µM
Kd (HLA-B*15:01): ≥ 20 µM
Kd (HLA-A*30:01; [18]): ≥ 20 µM
Kd (HLA-B*46:01 [10]): ≥ 20 µM
Sequence: HLPELIWRS

Sequence: QQRPDLILV
Kd (HLA-A*11:01; [19]): ≥ 5 µM
Kd (HLA-B*07:02; [19]): ≥ 5 µM
Kd (HLA-A*23:01): ≥ 5 µM
Kd (HLA-A*66:01): ≥ 5 µM
Kd (HLA-B*27:05; [19]): ≥ 5 µM
Kd (HLA-A*30:02): ≥ 20 µM
Kd (HLA-B*53:01): ≥ 5 µM
Kd (HLA-B*58:01; [19]): ≥ 5 µM
Kd (HLA-B*14:02): ≥ 5 µM
Kd (HLA-B*40:01; [19]): ≥ 5 µM
Kd (HLA-A*01:01; [19]): ≥ 5 µM
Kd (HLA-B*44:02): ≥ 5 µM
Kd (HLA-A*30:01; [19]): ≥ 5 µM
Kd (HLA-B*08:01): ≥ 5 µM
Kd (HLA-A*03:01 [11]): ≥ 20 µM
Kd (HLA-A*02:11 [12]): ≥ 20 µM
Kd (HLA-B*39:01): ≥ 20 µM
Kd (HLA-B*57:01): ≥ 20 µM
Kd (HLA-A*02:01 [1]; [20]): 3.43 µM
Kd (HLA-A*29:02): 0.089 µM
Kd (HLA-A*02:06 [13]): 0.17 µM
Kd (HLA-A*26:01 [14]): ≥ 20 µM
Kd (HLA-A*24:03): ≥ 20 µM
Kd (HLA-B*27:03): ≥ 20 µM
Kd (HLA-A*69:01; [20]): ≥ 20 µM
Kd (HLA-B*18:01 [15]): ≥ 20 µM
Kd (HLA-B*51:01): ≥ 20 µM
Kd (HLA-B*46:01 [16]): ≥ 20 µM
